Experimental data taken from patent US20250289897A1, “LEPTIN RECEPTOR AGONISTIC ANTIBODY AS MONO OR COMBO THERAPIES TO TREAT OBESITY” (ELI LILLY AND COMPANY, priority 2024, published 2025).
Several values for one entry are separate records, joined by “and”; a condition that tells them apart may be missing. Identical values can stand only once.

Key:
[1] = target: T1, FcRn (Homo sapiens, UniProt P55899); assay: Relative FcRn binding by FcRn-HPLC; conditions: FcRn affinity column; for Retention Time: pH gradient 5.5 to 8.8 over 90 minutes, main peak; for Peak Width: peak width at 50% peak height
T1 construct: purchased Roche 09430857001
Method: IgG binding to neonatal Fc receptor (FcRn) is a key mechanism for antibody recycling and a determinant of antibody pharmacokinetics (PK). […] Antibody-A is an IgG1 mAb with L234A, L235A, D265S mutations to reduce FcγR and Clq binding and M252Y, S254T, and T256E mutations to modulate the antibody's clearance profile. The impact of these combined mutation sets was assessed by FcRn-HPLC. Stock antibody solutions were diluted to 1 mg/mL into 20 mM MES, 140 mM NaCl, pH5.5. An Agilent 1290 HPLC equipped with an FcRn Affinity Column Gen2 (Roche, Cat #09430857001) was pre-equilibrated with 20 mM MES, 140 mM NaCl, pH5.5 with a flow rate of 0.2mL/min. 20 μμL antibody injections were made followed by 10 minute column wash with 20 mM MES, 140 mM NaCl, pH5.5. Antibodies were then eluted by pH gradient elution into 20 mM Tris, 140 mM NaCl, pH8.8 over 90 minutes. Chromatograms were blank-subtracted to remove baseline drift.

[2] = target: leptin-LEPR interaction (Homo sapiens, UniProt P48357); assay: ELISA based competition binding assay of antibodies and leptin protein to LEPR
Sequence of leptin-LEPR interaction (P48357 with tags, fused parts or gaps): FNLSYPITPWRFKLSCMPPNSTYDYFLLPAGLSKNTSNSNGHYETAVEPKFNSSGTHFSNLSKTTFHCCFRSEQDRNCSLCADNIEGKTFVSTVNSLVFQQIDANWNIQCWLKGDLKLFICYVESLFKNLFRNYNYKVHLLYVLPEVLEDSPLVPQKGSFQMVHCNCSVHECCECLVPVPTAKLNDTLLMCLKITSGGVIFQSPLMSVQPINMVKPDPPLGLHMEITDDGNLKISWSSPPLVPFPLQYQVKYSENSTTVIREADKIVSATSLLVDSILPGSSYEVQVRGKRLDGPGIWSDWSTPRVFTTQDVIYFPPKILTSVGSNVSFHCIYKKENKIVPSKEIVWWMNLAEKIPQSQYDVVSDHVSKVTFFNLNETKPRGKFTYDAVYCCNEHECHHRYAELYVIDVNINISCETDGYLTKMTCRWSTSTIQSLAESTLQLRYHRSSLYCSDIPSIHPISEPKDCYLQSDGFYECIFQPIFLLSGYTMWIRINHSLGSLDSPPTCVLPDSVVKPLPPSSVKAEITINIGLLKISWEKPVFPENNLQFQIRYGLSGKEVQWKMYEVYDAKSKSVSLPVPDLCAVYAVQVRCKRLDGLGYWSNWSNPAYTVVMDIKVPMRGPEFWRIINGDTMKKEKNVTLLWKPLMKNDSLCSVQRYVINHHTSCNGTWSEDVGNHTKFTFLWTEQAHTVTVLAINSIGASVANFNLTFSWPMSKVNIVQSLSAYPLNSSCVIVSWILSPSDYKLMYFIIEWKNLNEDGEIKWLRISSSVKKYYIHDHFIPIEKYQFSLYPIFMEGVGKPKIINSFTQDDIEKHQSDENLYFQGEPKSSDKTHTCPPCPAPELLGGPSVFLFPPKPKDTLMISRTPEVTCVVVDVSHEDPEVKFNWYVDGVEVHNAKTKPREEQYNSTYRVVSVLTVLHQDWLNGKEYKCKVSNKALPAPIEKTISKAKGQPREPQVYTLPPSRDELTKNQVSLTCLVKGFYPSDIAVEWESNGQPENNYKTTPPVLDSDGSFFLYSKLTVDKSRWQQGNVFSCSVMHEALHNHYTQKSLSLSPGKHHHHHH

| Retention Time [1] | Peak Width [1] | Substance | Hill Slope ([2]; competition dose response curve) | Bottom (%) ([2]; percent leptin binding to plate-bound LEPR-Fc, 2 nM leptin, bottom of dose response curve) | Top (%) ([2]; percent leptin binding to plate-bound LEPR-Fc, 2 nM leptin, top of dose response curve) |
| --- | --- | --- | --- | --- | --- |
| 88.9 min | 10 min and 10.0 min | Briakinumab | – | – | – |
| 69.4 min | 1.9 min | Ustekinumab | – | – | – |
| – | – | hLEPR-TEV-hIgG1Fc: recombinant LEPR extracellular domain fused to hIgG1-Fc (SEQ ID NO: 30), positive control competing for leptin | −1.07 | 6.076% | 92.03% |
